Measurements reported in patent publication US20140120109A1 (Regeneron, published 2014).

T1: human DR3, full-length, expressed on HEK293 NFkB-luciferase reporter cells (human, UniProt Q93038 25-417)
T1 sequence: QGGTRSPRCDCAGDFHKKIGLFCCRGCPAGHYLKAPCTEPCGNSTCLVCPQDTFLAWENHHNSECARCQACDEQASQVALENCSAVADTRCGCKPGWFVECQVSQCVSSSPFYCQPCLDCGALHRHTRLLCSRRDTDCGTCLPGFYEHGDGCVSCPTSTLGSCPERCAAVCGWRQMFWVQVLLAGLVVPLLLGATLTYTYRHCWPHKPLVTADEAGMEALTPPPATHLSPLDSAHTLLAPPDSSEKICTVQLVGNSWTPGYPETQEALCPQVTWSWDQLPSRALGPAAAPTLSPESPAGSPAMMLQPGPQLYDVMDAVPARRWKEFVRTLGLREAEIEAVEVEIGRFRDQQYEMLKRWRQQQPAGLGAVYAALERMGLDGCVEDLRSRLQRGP

T2: Fhm, hTL1A(Q167R), soluble, E. coli-expressed, residues 72-251 of SEQ ID NO:246 (human, UniProt O95150 72-251)
T2 construct: with or without N-terminal Met
T2 chain: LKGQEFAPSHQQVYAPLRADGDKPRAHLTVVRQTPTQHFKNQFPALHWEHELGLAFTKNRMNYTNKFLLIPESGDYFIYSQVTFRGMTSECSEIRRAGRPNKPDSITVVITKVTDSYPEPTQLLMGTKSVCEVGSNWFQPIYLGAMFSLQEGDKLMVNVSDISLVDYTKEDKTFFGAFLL

T3: cynomolgus monkey TL1A, soluble, E. coli-expressed, residues 72-251 of SEQ ID NO:248 (cynomolgus monkey (Macaca fascicularis), UniProt O95150 72-251 (human entry))
T3 construct: with or without N-terminal Met; also called MfTL1A (E. Coli)
T3 chain: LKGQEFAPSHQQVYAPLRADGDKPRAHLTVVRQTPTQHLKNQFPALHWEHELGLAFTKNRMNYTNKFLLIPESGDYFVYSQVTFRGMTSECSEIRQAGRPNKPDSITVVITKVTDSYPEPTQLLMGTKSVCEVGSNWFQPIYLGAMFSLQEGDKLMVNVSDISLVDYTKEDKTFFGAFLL

T4: mouse TL1A, soluble, E. coli-expressed, residues 76-252 of SEQ ID NO:250 (mouse, UniProt Q5UBV8 76-252)
T4 construct: with or without N-terminal Met; also called mTL1A (E. Coli)
T4 sequence: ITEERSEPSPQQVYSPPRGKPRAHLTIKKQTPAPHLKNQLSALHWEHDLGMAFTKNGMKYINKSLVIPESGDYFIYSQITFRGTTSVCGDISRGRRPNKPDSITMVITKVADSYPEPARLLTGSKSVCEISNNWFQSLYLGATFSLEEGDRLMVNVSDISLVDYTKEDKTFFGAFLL

T5: human TL1A, soluble, CHO-expressed, residues 72-251 of SEQ ID NO:244 with N-terminal His6-tag (human, UniProt O95150 72-251)
T5 construct: also called hTL1A; hTL1A (CHO)
T5 sequence: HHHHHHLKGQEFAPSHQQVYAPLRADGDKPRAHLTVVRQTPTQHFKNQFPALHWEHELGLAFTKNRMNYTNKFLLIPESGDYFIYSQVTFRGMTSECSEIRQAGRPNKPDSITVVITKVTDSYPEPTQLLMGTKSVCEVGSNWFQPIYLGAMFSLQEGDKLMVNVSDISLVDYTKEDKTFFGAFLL

T6: cynomolgus monkey TL1A, soluble, CHO-expressed, residues 72-251 of SEQ ID NO:248 with N-terminal His6-tag (cynomolgus monkey (Macaca fascicularis), UniProt O95150 72-251 (human entry))
T6 construct: also called MfTL1A; MfTL1A (CHO)
T6 chain: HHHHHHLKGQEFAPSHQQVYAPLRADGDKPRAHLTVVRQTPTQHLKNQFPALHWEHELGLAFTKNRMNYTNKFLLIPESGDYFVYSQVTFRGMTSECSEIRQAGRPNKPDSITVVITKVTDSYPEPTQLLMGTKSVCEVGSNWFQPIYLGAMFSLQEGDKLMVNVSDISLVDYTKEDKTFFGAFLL

T7: Fhm, hTL1A(Q167R), soluble, CHO-expressed, residues 72-251 of SEQ ID NO:246 (human, UniProt O95150 72-251)
T7 construct: also called Fhm (CHO); FHM (CHO)
T7 chain: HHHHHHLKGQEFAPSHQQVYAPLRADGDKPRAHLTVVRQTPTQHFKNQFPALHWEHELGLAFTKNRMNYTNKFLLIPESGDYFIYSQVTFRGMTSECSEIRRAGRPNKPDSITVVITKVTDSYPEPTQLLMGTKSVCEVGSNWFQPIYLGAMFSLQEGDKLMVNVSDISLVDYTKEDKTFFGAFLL

B1: full length human TL1A expressed on HEK293 cells (ligand)
chain: MAEDLGLSFGETASVEMLPEHGSCRPKARSSSARWALTCCLVLLPFLAGLTTYLLVSQLRAQGEACVQFQALKGQEFAPSHQQVYAPLRADGDKPRAHLTVVRQTPTQHFKNQFPALHWEHELGLAFTKNRMNYTNKFLLIPESGDYFIYSQVTFRGMTSECSEIRQAGRPNKPDSITVVITKVTDSYPEPTQLLMGTKSVCEVGSNWFQPIYLGAMFSLQEGDKLMVNVSDISLVDYTKEDKTFFGAFLL
B2: full-length Fhm, human TL1A(Q167R), expressed on HEK293 cells (ligand)
chain: MAEDLGLSFGETASVEMLPEHGSCRPKARSSSARWALTCCLVLLPFLAGLTTYLLVSQLRAQGEACVQFQALKGQEFAPSHQQVYAPLRADGDKPRAHLTVVRQTPTQHFKNQFPALHWEHELGLAFTKNRMNYTNKFLLIPESGDYFIYSQVTFRGMTSECSEIRRAGRPNKPDSITVVITKVTDSYPEPTQLLMGTKSVCEVGSNWFQPIYLGAMFSLQEGDKLMVNVSDISLVDYTKEDKTFFGAFLL
B3: H2M1681N (antibody, V domains shown)
VH: EVQLLESGGGLVQPGKSLRLSCAVSGFTFSTYGMNWVRQAPGKGLEWVSSISGTGRTTYHADSVQGRFTVSRDNSKNILYLQMNSLRADDTAVYFCTKERGDYYYGVFDYWGQGTLVTVSS
VL: DIQMTQSPSTLSASVGDRVTITCRASQTISSWLAWYQQTPEKAPKLLIYAASNLQSGVPSRFSGSGSGTEFTLTISSLQPDDFATYYCQQYHRSWTFGQGTKVEIT
B4: H2M1817N (antibody, V domains shown)
VH: QVQLQQWGAGLLKPSETLSLTCAVSGGSFSDYFWTWIRQPPGKGLEWIGEISHSGRTNYNPSLKSRVTISVDTSMSQFSLKMTSVTAADSAVYYCARDYPNWVFDYWGQGTLVTVSS
VL: EIELTQSPGTLSLSPGEGATLSCRASQSVFNSYLAWYQQKPGQAPRLLIYGASRRATGIPDRFSGSGSGTDFTLTISRLEPGDFAVYFCQQYGNSPLTFGGGTKVEIK
notes: chimeric hybridoma antibody: human variable regions, mouse constant regions (mouse Fc)
B5: H2M1805N (antibody, V domains shown)
VH: QVQLQQWGAGLLKPSETLSLTCAVYGGSFTGFYWSWIRQPPGKGLEWIGEINHRGNTNYNPSLKSRVTMSVDTSKNQFSLNMISVTAADTAMYFCASPFYDFWSGSDYWGQGTLVTVSS
VL: DIMLTQTPLTSPVTLGQPASISCKSSQSLVHSDGNTYLSWLQQRPGQPPRLLFYKISNRFSGVPDRFSGSGAGTDFTLKISRVEAEDVGVYYCMQATQFPLTFGGGTKVEIK
notes: as for B4

Legend:
[1] = biological target: T1, human DR3, full-length, expressed on …; assay: cell-based or functional assay
[2] = biological target: T2, Fhm, hTL1A(Q167R), soluble, E. …; assay: SPR 25C, mAb captured
Experimental: (§1) Measurements were conducted on a T100 BIACORE™ instrument. […] Kinetic association (kₐ) and dissociation (kd) rate constants were determined by fitting the data to a 1:1 binding model using BIAevaluation 4.1 curve fitting software (BIAcore Life Sciences). Molar concentrations of TL1A/Fhm used in the data fitting assumed a monomeric state for TL1A in solution. Binding dissociation equilibrium constants (KD) and dissociative half-lives (t_{1/2}) were calculated from the kinetic rate constants as: KD (M)=kd/kₐ; and t_{1/2} (min)=[In2/(60*kd)].

[3] = biological target: T3, cynomolgus monkey TL1A, soluble, E. …; assay: SPR 25C, mAb captured
Experimental: as §1

[4] = biological target: T3, cynomolgus monkey TL1A, soluble, E. …; assay: SPR 37C, mAb captured
Experimental: as §1

[5] = biological target: T4, mouse TL1A, soluble, E. coli-expressed, …; assay: SPR 25C, steady state
Experimental: as §1, with “Binding dissociation equilibrium constants (KD) and dissociative half-lives (t_{1/2}) were calculated from the kinetic rate constants as: KD (M)=kd/kₐ; and t_{1/2} (min)=[In2/(60*kd)].” left out

[6] = biological target: T5, human TL1A, soluble, CHO-expressed, …; assay: ELISA, blocks hTL1A (10 pM) binding hDcR3-Fc
Experimental: (§2) The ability of antibodies to block human TL1A binding to its cognate receptors, the DR3 and DcR3 receptors, was measured using a competition sandwich ELISA. In addition, blocking of a human TL1A variant FHM (human TL1A Q167R) and the cynomolgus monkey (Macaca fascicularis) TL1A (MfTL1A) protein binding to the human DR3 or DcR3 receptors was measured in the same manner. Constant amounts of biotinylated human TL1A or FHM (both expressed with a 6-His tag in CHO cells) or biotinylated MfTL1A (expressed in CHO cells) were separately titrated with varying amounts of antibodies. The antibody-protein complexes were incubated in solution (1 hr, 25° C.) and then transferred to microtiter plates coated with human DR3 (hDR3) or human DcR3 (hDcR3) expressed as human IgG1 Fc fusion proteins. After one hour at 25° C. the wells were washed, and bound human or monkey TL1A was detected with streptavidin conjugated with horseradish peroxidase (HRP). Wells were developed with a TMB solution to produce a colorimetric reaction and quenched with aqueous sulfuric acid before reading absorbance at 450 nm on a Perkin-Elmer Victor X5 plate reader. A sigmoidal dose-response curve was fit to the data using the Prism™ data analysis package. […] Both fully human anti-hTL1A mAbs and comparator antibodies, i.e., control mAb1 (an anti-hTL1A antibody with heavy and light chain variable domains having the amino acid sequences corresponding to SEQ ID NOS:21 and 27, respectively, of US 2009/0280116) and control mAb3 (an anti-hTL1A antibody with heavy and light chain variable domains having the amino acid sequences corresponding to SEQ ID NOS:57 and 48, respectively, of US 2009/0280116), were included in the study. NB: No binding under the conditions tested; NT: Not tested. Concentrations of biotinylated soluble ligands: (1) 150 pM; (2) 500 pM; (3) 10 pM; and (4) 50 pM.

[7] = biological target: T5, human TL1A, soluble, CHO-expressed, …; assay: ELISA, blocks hTL1A (150 pM) binding hDR3-Fc
Experimental: as §2

[8] = biological target: T6, cynomolgus monkey TL1A, soluble, …; assay: ELISA, blocks MfTL1A (50 pM) binding hDcR3-Fc
Experimental: as §2

[9] = biological target: T6, cynomolgus monkey TL1A, soluble, …; assay: ELISA, blocks MfTL1A (500 pM) binding hDR3-Fc
Experimental: as §2

[10] = biological target: T7, Fhm, hTL1A(Q167R), soluble, …; assay: ELISA, blocks FHM (10 pM) binding hDcR3-Fc; blocking of FHM binding to DcR3
Experimental: as §2

[11] = biological target: T7, Fhm, hTL1A(Q167R), soluble, …; assay: ELISA, blocks FHM (10 pM) binding hDcR3-Fc
Experimental: as §2

[12] = biological target: T7, Fhm, hTL1A(Q167R), soluble, …; assay: ELISA, blocks FHM (150 pM) binding hDR3-Fc
Experimental: as §2

Binder | EC50 (cells), NFkB-luciferase reporter [1] | binding result [2] | Kd [3] | t1/2 [3] | Kd [4] | t1/2 [4] | binding result [5] | IC50 [6] | IC50 [7] | IC50 [8] | IC50 [9] | IC50 [10] | Kd [2] | t1/2 [2] | IC50 [11] | IC50 [12]
B1 | 23500 cells |  |  |  |  |  |  |  |  |  |  |  |  |  |  | 
B2 | 47900 cells |  |  |  |  |  |  |  |  |  |  |  |  |  |  | 
B3 |  | no binding (tested: up to 100 nM) | 0.546 nM | 54 min | 1.5 nM | 14 min | no binding (tested: up to 100 nM) | 0.013 nM | 0.037 nM | 0.149 nM | 0.061 nM | 0.234 nM |  |  |  | 
B4 |  |  | 1.25 nM | 37 min | 1 nM | 30 min | no binding (tested: up to 100 nM) | 0.89 nM | 0.154 nM | 0.776 nM | 0.137 nM |  | 0.451 nM | 57 min | 0.666 nM | 0.249 nM
B5 |  | no binding (tested: up to 100 nM) | 0.345 nM | 67 min | 0.439 nM | 36 min | no binding (tested: up to 100 nM) | 0.012 nM | 0.006 nM | 1.14 nM | 0.013 nM | 2.24 nM |  |  |  | 
